Measured values taken from FireProtDB (doi:10.1002/prot.340090203).

Conditions: Escherichia coli (strain K12), reversible: yes, whole UniProt chain shown; for unfolding free energy: pH 7, 25 °C, GdnHCl, CD, Potassium phosphate 10 mM
[1] = pH 9, Thermal, DSC, Sodium tetraborate 1 mM

B1: Tryptophan synthase alpha chain wild type, P0A877 (protein)
chain: MERYESLFAQLKERKEGAFVPFVTLGDPGIEQSLKIIDTLIEAGADALELGIPFSDPLADGPTIQNATLRAFAAGVTPAQCFEMLALIRQKHPTIPIGLLMYANLVFNKGIDEFYAQCEKVGVDSVLVADVPVEESAPFRQAALRHNVAPIFICPPNADDDLLRQIASYGRGYTYLLSRAGVTGAENRAALPLNHLVAKLKEYNAAPPLQGFGISAPDQVKAAIDAGAAGAISGSAIVKIIEQHINEPEKMLAALKVFVQPMKAATRS
  unfolding free energy: 8.8 kcal/mol
transition: 3
  unfolding free energy: 4.6 kcal/mol
[1]
  Tm: 54.1 °C
  heat capacity change of unfolding: 4.6 kcal/mol/K
  unfolding enthalpy (calorimetric): 120 kcal/mol
